In patent US20080182978A1, “ANTI-NGF ANTIBODIES AND METHODS USING SAME” (RINAT NEUROSCIENCE CORP, priority 2002, published 2008):
“Also recorded” adds a separate entry of the source.

Tests used:
[1] = biological target: macrophage stimulating protein (MSP) (Homo sapiens, UniProt P26927); test: Mouse E17/18 trigeminal neuron survival assay, MSP; type: cell-based; conditions: MSP 600 pM; antibody up to 200 nM; 48 hours
Procedure: (§1) The ability of antibody E3 to specifically block NGF activity was evaluated by measurement of the capacity of the antibody to inhibit survival of mouse E17/18 trigeminal neurons in vitro in the presence of saturating concentrations of NGF, the NGF-related neurotrophin NT3, or the NGF-unrelated neurotrophic factor, macrophage stimulating protein (MSP). The survival of mouse E17/18 trigeminal neurons is a sensitive assay to evaluate the NGF-blocking activity of anti-NGF antagonist antibodies because NGF is required to support survival of these neurons at higher concentrations than the level of NGF required to support survival of E13.5 TG neurons).
(§2) The survival assay was conducted as follows: time mated pregnant Swiss Webster female mice were euthanised by CO2 inhalation. The uterine horns were removed and the embryos (at embryonic day 17 or 18) were extracted and decapitated. The trigeminal and nodose ganglia were dissected and cleaned. The ganglia were then trypsinised, mechanically dissociated and plated at a density of 100-300 cells per well in defined, serum-free medium in 4-well plates (Greiner) coated with poly-L-ornithine and laminin.
(§3) E17/18 trigeminal neurons were grown either without added neurotrophic factors (negative control) or in the presence of saturating concentrations of human NGF (400 pM and 15 pM) (positive control); NT3 (400 pM); or MSP (600 pM). […]

human NGF = human NGF (Homo sapiens, UniProt P01138); test: Mouse E17/18 trigeminal neuron survival assay, NGF; type: cell-based; conditions: saturating NGF (400 pM); 48 hours
Procedure: as §1, §2, §3

NT4/5 = biological target: T1, NT4/5 (Homo sapiens, UniProt P34130); test: Mouse E17 nodose neuron survival assay, NT4/5; type: cell-based; conditions: NT4/5 400 pM; antibody up to 200 nM; 48 hours
T1 sequence (P34130 81-210): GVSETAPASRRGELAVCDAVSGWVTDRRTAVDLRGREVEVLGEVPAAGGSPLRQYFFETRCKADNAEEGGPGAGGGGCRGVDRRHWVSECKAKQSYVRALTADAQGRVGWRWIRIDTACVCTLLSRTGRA
Procedure: The ability of antibody E3 to specifically block NGF activity was also evaluated by measurement of the capacity of the antibody to inhibit survival of mouse nodose E17 neurons in the presence of saturating concentrations of BDNF or NT4/5. Survival of nodose neurons is supported by BDNF or NT4/5; therefore, survival of these neurons is a sensitive assay to evaluate the BDNF or NT4/5-blocking ability of the anti-NGF antagonist antibody.
as §2
E17 nodose neurons were grown either in the absence of added neurotrophic factors (negative control), or with saturating concentrations of BDNF (400 pM) (positive control) or NT4/5 (400 pM) or NGF unrelated growth factor […]. High concentrations of neurotrophins were used, as the goal of this experiment was to test specificity of the antibodies. […]

[2] = system: adjuvant-induced arthritis; test: Dose response of E3 on vocalization intensity in arthritic rats (Example 9); type: in vivo, rat
Procedure: The ability of E3 to produce reduction in pain in arthritic rats was further investigated by examining the dose response relationship between E3 administration and pain reduction. Rats were treated with adjuvant to induce arthritis as described above. Ten rats not injected with adjuvant were used as non-arthritic controls. Fourteen days after adjuvant injection, animals were qualified into the study based on the criteria stated above, randomized into eight groups of ten rats and tested for the intensity of their vocalization response. They were then dosed on day 14 with saline, or 0.003 mg/kg, 0.01 mg/kg, 0.03 mg/kg, 0.1 mg/kg, 0.3 mg/kg, 1 mg/kg or 5 mg/kg of E3 antibody as described above. Animals were tested for their vocalization response on days 16, 18, 20, and 24. Animals were redosed with saline or the same dose of E3 on day 18 after the vocalization testing. Animals were also weighed each day, starting at day 14. Thus, animals were dosed twice with a given dose of antibody or saline on days 14 and 18, and assessed for pain five times, on days 14, 16, 18, 20 and 24. Data are shown in Tables 20-22 and in FIGS. 20-22. The effect of treating animals with various doses of anti-NGF antibody E3 on pain induced vocalization (data shown in Table 20) was statistically analyzed by using two-way ANOVA to compare the results obtained pairwise between arthritic animals treated with vehicle with those treated with a given dose of antibody E3. […] Even at the lowest dose tested (0.003 mg/kg of E3), the difference in vocalization was significant (p<0.0001).

Sequence of human NGF (P01138 122-241): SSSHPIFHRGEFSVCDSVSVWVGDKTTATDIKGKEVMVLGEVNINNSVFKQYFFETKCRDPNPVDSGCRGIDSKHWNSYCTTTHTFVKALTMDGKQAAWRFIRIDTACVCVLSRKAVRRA
Sequence of macrophage stimulating protein (MSP) (P26927 19-711, species assumed): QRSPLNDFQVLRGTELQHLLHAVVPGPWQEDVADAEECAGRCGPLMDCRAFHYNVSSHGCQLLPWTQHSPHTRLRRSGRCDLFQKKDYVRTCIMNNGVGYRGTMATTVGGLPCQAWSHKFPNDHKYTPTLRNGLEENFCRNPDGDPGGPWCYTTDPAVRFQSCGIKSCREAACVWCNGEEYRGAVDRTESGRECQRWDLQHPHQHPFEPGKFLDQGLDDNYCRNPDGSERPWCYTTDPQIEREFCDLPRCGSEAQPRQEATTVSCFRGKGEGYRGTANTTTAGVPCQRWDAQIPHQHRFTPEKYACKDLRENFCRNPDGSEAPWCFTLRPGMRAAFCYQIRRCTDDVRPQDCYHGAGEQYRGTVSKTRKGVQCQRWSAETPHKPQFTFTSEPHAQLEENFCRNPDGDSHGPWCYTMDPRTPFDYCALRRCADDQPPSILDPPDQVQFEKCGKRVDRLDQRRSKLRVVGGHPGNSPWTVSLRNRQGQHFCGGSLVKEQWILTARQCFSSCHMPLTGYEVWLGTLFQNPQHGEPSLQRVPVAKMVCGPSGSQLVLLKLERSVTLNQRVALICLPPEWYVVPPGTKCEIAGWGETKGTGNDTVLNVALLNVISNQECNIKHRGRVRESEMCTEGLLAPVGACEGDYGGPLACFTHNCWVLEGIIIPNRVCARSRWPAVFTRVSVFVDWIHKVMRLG

B1: E3: humanized, affinity matured anti-NGF antagonist antibody; variable regions SEQ ID NO:1 and 2; human IgG2a (A330P331 to S330S331), kappa (antibody, V domains shown)
VH: QVQLQESGPGLVKPSETLSLTCTVSGFSLIGYDLNWIRQPPGKGLEWIGIIWGDGTTDYNSAVKSRVTISKDTSKNQFSLKLSSVTAADTAVYYCARGGYWYATSYYFDYWGQGTLVTVS
VL: DIQMTQSPSSLSASVGDRVTITCRASQSISNNLNWYQQKPGKAPKLLIYYTSRFHSGVPSRFSGSGSGTDFTFTISSLQPEDIATYYCQQEHTLPYTFGQGTKLEIKRT
modifications: human IgG2a constant (A330S/P331S) and kappa constant missing
- survival of E17/18 trigeminal neurons promoted by MSP [1]: had no effect; also recorded: did not inhibit
- survival of E17/18 trigeminal neurons promoted by NGF (human NGF): completely blocked; also recorded: totally blocked
- survival of E17 nodose neurons promoted by NT4/5 (NT4/5): had no effect; also recorded: did not inhibit
- effect on pain induced vocalization vs vehicle (two-way ANOVA) ([2]; 0.003 to 5 mg/kg, p<0.0001): highly significant effect at all levels of E3 tested
- Vocalization intensity ([2]; E3 0.003 mg/kg on days 14+18, day 14): 981.75 mV
- Vocalization intensity ([2]; E3 0.003 mg/kg on days 14+18, day 16): 825.60 mV
- Vocalization intensity ([2]; E3 0.003 mg/kg on days 14+18, day 18): 427.43 mV
- Vocalization intensity ([2]; E3 0.003 mg/kg on days 14+18, day 20): 448.00 mV
- Vocalization intensity ([2]; E3 0.003 mg/kg on days 14+18, day 24): 724.50 mV
- Vocalization intensity ([2]; E3 0.01 mg/kg on days 14+18, day 14): 1007.28 mV
- Vocalization intensity ([2]; E3 0.01 mg/kg on days 14+18, day 16): 576.88 mV
- Vocalization intensity ([2]; E3 0.01 mg/kg on days 14+18, day 18): 334.45 mV
- Vocalization intensity ([2]; E3 0.01 mg/kg on days 14+18, day 20): 313.13 mV
- Vocalization intensity ([2]; E3 0.01 mg/kg on days 14+18, day 24): 596.38 mV
- Vocalization intensity ([2]; E3 0.03 mg/kg on days 14+18, day 14): 963.18 mV
- Vocalization intensity ([2]; E3 0.03 mg/kg on days 14+18, day 16): 448.43 mV
- Vocalization intensity ([2]; E3 0.03 mg/kg on days 14+18, day 18): 292.52 mV
- Vocalization intensity ([2]; E3 0.03 mg/kg on days 14+18, day 20): 209.48 mV
- Vocalization intensity ([2]; E3 0.03 mg/kg on days 14+18, day 24): 513.60 mV
- Vocalization intensity ([2]; E3 0.1 mg/kg on days 14+18, day 14): 1159.30 mV
- Vocalization intensity ([2]; E3 0.1 mg/kg on days 14+18, day 16): 283.71 mV
- Vocalization intensity ([2]; E3 0.1 mg/kg on days 14+18, day 18): 262.96 mV
- Vocalization intensity ([2]; E3 0.1 mg/kg on days 14+18, day 20): 79.74 mV
- Vocalization intensity ([2]; E3 0.1 mg/kg on days 14+18, day 24): 432.45 mV
- Vocalization intensity ([2]; E3 0.3 mg/kg on days 14+18, day 14): 1191.58 mV
- Vocalization intensity ([2]; E3 0.3 mg/kg on days 14+18, day 16): 151.85 mV
- Vocalization intensity ([2]; E3 0.3 mg/kg on days 14+18, day 18): 194.19 mV
- Vocalization intensity ([2]; E3 0.3 mg/kg on days 14+18, day 20): 66.27 mV
- Vocalization intensity ([2]; E3 0.3 mg/kg on days 14+18, day 24): 176.32 mV
- Vocalization intensity ([2]; E3 1.0 mg/kg on days 14+18, day 14): 1067.00 mV
- Vocalization intensity ([2]; E3 1.0 mg/kg on days 14+18, day 16): 98.62 mV
- Vocalization intensity ([2]; E3 1.0 mg/kg on days 14+18, day 18): 174.13 mV
- Vocalization intensity ([2]; E3 1.0 mg/kg on days 14+18, day 20): 71.23 mV
- Vocalization intensity ([2]; E3 1.0 mg/kg on days 14+18, day 24): 19.21 mV
- fall of vocalization intensity ([2]; E3 1 mg/kg, within two days (earliest time point tested)): 90%
- Vocalization intensity ([2]; E3 5.0 mg/kg on days 14+18, day 14): 896.25 mV
- Vocalization intensity ([2]; E3 5.0 mg/kg on days 14+18, day 16): 79.18 mV
- Vocalization intensity ([2]; E3 5.0 mg/kg on days 14+18, day 18): 200.42 mV
- Vocalization intensity ([2]; E3 5.0 mg/kg on days 14+18, day 20): 63.57 mV
- Vocalization intensity ([2]; E3 5.0 mg/kg on days 14+18, day 24): 12.35 mV
- pain relief at lowest dose ([2]; doses as low as 0.003 mg/kg): at least partial pain relief
